# Where “and” joins values, the source holds several entries; their conditions need not be identical. Equal values may be shown once.
# Target: nucleocapsid variant NC-1 (circularly permuted Aquifex aeolicus lumazine synthase with the arginine-rich peptide λN+ appended) (Aquifex aeolicus)
# Assay: cryo-EM structure
substance,measurement,value
nucleocapsid variant NC-1 (circularly permuted Aquifex aeolicus lumazine synthase with the arginine-rich peptide λN+ appended),stoichiometry N,180 and 120
